Measurements published in IntAct's records for PubMed 31515488.

B1: Regulator of G-protein signaling 20 (Homo sapiens), O76081 (parent)
chain: MPQLSQDNQECLQKHFSRPSIWTQFLPLFRAQRYNTDIHQITENEGDLRAVPDIKSFPPAQLPDSPAAPKLFGLLSSPLSSLARFFSHLLRRPPPEAPRRRLDFSPLLPALPAARLSRGHEELPGRLSLLLGAALALPGRPSGGRPLRPPHPVAKPREEDATAGQSSPMPQMGSERMEMRKRQMPAAQDTPGAAPGQPGAGSRGSNACCFCWCCCCSCSCLTVRNQEDQRPTIASHELRADLPTWEESPAPTLEEVNAWAQSFDKLMVTPAGRNAFREFLRTEFSEENMLFWMACEELKKEANKNIIEEKARIIYEDYISILSPKEVSLDSRVREVINRNMVEPSQHIFDDAQLQIYTLMHRDSYPRFMNSAVYKDLLQSLSEKSIEA
B2: Interferon-induced protein with tetratricopeptide repeats 2 (Homo sapiens), P09913 (parent)
chain: MSENNKNSLESSLRQLKCHFTWNLMEGENSLDDFEDKVFYRTEFQNREFKATMCNLLAYLKHLKGQNEAALECLRKAEELIQQEHADQAEIRSLVTWGNYAWVYYHMGRLSDVQIYVDKVKHVCEKFSSPYRIESPELDCEEGWTRLKCGGNQNERAKVCFEKALEKKPKNPEFTSGLAIASYRLDNWPPSQNAIDPLRQAIRLNPDNQYLKVLLALKLHKMREEGEEEGEGEKLVEEALEKAPGVTDVLRSAAKFYRRKDEPDKAIELLKKALEYIPNNAYLHCQIGCCYRAKVFQVMNLRENGMYGKRKLLELIGHAVAHLKKADEANDNLFRVCSILASLHALADQYEDAEYYFQKEFSKELTPVAKQLLHLRYGNFQLYQMKCEDKAIHHFIEGVKINQKSREKEKMKDKLQKIAKMRLSKNGADSEALHVLAFLQELNEKMQQADEDSERGLESGSLIPSASSWNGE
partner: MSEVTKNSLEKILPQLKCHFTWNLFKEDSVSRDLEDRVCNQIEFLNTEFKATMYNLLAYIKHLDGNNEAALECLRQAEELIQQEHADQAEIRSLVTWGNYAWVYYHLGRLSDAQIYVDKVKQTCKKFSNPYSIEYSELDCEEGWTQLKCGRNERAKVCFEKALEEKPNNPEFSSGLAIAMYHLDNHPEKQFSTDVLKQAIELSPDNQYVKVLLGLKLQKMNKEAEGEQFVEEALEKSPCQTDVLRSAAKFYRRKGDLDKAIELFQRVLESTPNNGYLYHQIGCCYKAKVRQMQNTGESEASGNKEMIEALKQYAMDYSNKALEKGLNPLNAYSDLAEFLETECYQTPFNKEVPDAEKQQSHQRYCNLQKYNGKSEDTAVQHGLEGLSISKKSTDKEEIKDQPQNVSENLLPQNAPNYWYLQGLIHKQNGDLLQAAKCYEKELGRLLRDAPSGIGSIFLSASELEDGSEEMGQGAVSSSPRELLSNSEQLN
B3: Tubby-related protein 3 (Homo sapiens), O75386 (parent)
chain: MEASRCRLSPSGDSVFHEEMMKMRQAKLDYQRLLLEKRQRKKRLEPFMVQPNPEARLRRAKPRASDEQTPLVNCHTPHSNVILHGIDGPAAVLKPDEVHAPSVSSSVVEEDAENTVDTASKPGLQERLQKHDISESVNFDEETDGISQSACLERPNSASSQNSTDTGTSGSATAAQPADNLLGDIDDLEDFVYSPAPQGVTVRCRIIRDKRGMDRGLFPTYYMYLEKEENQKIFLLAARKRKKSKTANYLISIDPVDLSREGESYVGKLRSNLMGTKFTVYDRGICPMKGRGLVGAAHTRQELAAISYETNVLGFKGPRKMSVIIPGMTLNHKQIPYQPQNNHDSLLSRWQNRTMENLVELHNKAPVWNSDTQSYVLNFRGRVTQASVKNFQIVHKNDPDYIVMQFGRVADDVFTLDYNYPLCAVQAFGIGLSSFDSKLACE
B4: Splicing factor 45 (Homo sapiens), Q96I25 (parent)
chain: MSLYDDLGVETSDSKTEGWSKNFKLLQSQLQVKKAALTQAKSQRTKQSTVLAPVIDLKRGGSSDDRQIVDTPPHVAAGLKDPVPSGFSAGEVLIPLADEYDPMFPNDYEKVVKRQREERQRQRELERQKEIEEREKRRKDRHEASGFARRPDPDSDEDEDYERERRKRSMGGAAIAPPTSLVEKDKELPRDFPYEEDSRPRSQSSKAAIPPPVYEEQDRPRSPTGPSNSFLANMGGTVAHKIMQKYGFREGQGLGKHEQGLSTALSVEKTSKRGGKIIVGDATEKDASKKSDSNPLTEILKCPTKVVLLRNMVGAGEVDEDLEVETKEECEKYGKVGKCVIFEIPGAPDDEAVRIFLEFERVESAIKAVVDLNGRYFGGRVVKACFYNLDKFRVLDLAEQV
partner: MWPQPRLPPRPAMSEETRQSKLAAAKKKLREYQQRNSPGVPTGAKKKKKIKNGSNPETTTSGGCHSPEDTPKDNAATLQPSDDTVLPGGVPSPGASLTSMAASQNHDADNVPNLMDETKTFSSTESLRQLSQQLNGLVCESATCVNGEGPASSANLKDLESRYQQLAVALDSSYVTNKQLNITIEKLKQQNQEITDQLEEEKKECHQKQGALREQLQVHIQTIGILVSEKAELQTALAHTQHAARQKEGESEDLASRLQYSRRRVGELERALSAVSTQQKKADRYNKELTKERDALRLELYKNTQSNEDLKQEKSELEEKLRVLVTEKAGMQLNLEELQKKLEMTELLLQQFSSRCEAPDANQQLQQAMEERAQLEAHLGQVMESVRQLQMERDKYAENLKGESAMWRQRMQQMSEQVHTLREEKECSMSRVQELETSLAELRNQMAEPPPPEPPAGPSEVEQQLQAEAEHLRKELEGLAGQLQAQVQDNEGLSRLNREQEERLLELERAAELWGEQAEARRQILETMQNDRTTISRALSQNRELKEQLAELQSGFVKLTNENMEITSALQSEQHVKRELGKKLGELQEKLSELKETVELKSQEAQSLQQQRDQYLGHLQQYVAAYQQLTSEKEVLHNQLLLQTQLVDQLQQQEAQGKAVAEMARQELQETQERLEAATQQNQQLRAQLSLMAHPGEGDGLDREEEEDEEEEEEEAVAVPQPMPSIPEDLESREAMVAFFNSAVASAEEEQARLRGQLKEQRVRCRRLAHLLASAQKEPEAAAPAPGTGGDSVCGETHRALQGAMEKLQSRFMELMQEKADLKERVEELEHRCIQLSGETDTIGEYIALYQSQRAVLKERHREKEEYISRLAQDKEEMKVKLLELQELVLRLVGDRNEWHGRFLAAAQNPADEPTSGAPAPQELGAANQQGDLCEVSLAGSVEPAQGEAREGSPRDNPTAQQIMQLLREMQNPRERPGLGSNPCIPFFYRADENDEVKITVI
B5: Beta-taxilin (Homo sapiens), Q8N3L3 (parent)
chain: MEANHSEQLSAERQSTPPGDSSSLPSHNGLEKEDGQDSPTPVQPPEKEASVHPDISEELNRQLEDIINTYGSAASTAGKEGSARASEQPENAESPDNEDGDCEETTEEAGREPVASGEPPTVKEPVSNKEQKLEKKILKGLGKEANLLMQNLNKLQTPEEKFDFLFKKYAELLDEHRTEQKKLKLLQKKQVQIQKEKDQLQGEHSRAILARSKLESLCRELQRHNKTLKEEALQRAREEEEKRKEITSHFQSTLTDIQGQIEQQSERNMKLCQENTELAEKLKSIIDQYELREEHLDKIFKHRELQQKLVDAKLEQAQEMMKEAEERHKREKEYLLNQAAEWKLQAKVLKEQETVLQAQLTLYSGRFEEFQSTLTKSNEVFATFKQEMDKTTKKMKKLEKDTATWKARFENCNKALLDMIEEKALRAKEYECFVMKIGRLENLCRALQEERNELHKKIRDAEISEKDDQSQHNSDEEPESNVSVDQEIDAEEVNSVQTAVKNLATAFMIIHHPESTPHQSKETQPEIGSSQESADAALKEPEQPPLIPSRDSESPLPPLTPQAEAEGGSDAEPPSKASNSPAGLGAETQCEGLPVGAQADQASWKPEAEASGQAPQAPTEASLQKMEADVPAPACAAEEHVAAMVPACEPSRQPPRAAAEELPVGASAGPQPRNVADTNLEGVD
partner: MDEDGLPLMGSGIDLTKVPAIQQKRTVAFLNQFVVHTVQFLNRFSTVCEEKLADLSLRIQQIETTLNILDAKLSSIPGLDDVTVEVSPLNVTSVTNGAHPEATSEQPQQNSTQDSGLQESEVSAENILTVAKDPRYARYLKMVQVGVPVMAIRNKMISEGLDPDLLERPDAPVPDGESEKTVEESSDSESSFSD
B6: Zinc finger protein RFP (Homo sapiens), P14373 (parent)
chain: MASGSVAECLQQETTCPVCLQYFAEPMMLDCGHNICCACLARCWGTAETNVSCPQCRETFPQRHMRPNRHLANVTQLVKQLRTERPSGPGGEMGVCEKHREPLKLYCEEDQMPICVVCDRSREHRGHSVLPLEEAVEGFKEQIQNQLDHLKRVKDLKKRRRAQGEQARAELLSLTQMEREKIVWEFEQLYHSLKEHEYRLLARLEELDLAIYNSINGAITQFSCNISHLSSLIAQLEEKQQQPTRELLQDIGDTLSRAERIRIPEPWITPPDLQEKIHIFAQKCLFLTESLKQFTEKMQSDMEKIQELREAQLYSVDVTLDPDTAYPSLILSDNLRQVRYSYLQQDLPDNPERFNLFPCVLGSPCFIAGRHYWEVEVGDKAKWTIGVCEDSVCRKGGVTSAPQNGFWAVSLWYGKEYWALTSPMTALPLRTPLQRVGIFLDYDAGEVSFYNVTERCHTFTFSHATFCGPVRPYFSLSYSGGKSAAPLIICPMSGIDGFSGHVGNHGHSMETSP
partner: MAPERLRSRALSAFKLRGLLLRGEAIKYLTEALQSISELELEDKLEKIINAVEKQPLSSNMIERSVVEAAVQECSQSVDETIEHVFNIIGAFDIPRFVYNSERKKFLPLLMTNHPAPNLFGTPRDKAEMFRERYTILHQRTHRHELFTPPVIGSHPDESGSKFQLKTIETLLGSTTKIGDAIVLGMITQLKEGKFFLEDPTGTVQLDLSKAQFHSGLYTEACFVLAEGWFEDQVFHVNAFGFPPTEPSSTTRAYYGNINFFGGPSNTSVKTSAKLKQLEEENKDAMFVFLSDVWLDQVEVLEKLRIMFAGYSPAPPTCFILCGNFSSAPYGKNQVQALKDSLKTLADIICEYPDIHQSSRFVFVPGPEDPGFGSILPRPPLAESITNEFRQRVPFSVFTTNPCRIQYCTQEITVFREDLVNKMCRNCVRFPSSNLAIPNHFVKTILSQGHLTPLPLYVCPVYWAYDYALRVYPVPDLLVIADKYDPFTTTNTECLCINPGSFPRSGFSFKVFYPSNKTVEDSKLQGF
B7: Tuftelin-interacting protein 11 (Homo sapiens), Q9UBB9 (parent)
chain: MSLSHLYRDGEGRIDDDDDERENFEITDWDLQNEFNPNRQRHWQTKEEATYGVWAERDSDDERPSFGGKRARDYSAPVNFISAGLKKGAAEEAELEDSDDEEKPVKQDDFPKDFGPRKLKTGGNFKPSQKGFAGGTKSFMDFGSWERHTKGIGQKLLQKMGYVPGRGLGKNAQGIINPIEAKQRKGKGAVGAYGSERTTQSMQDFPVVDSEEEAEEEFQKELSQWRKDPSGSKKKPKYSYKTVEELKAKGRISKKLTAPQKELSQVKVIDMTGREQKVYYSYSQISHKHNVPDDGLPLQSQQLPQSGKEAKAPGFALPELEHNLQLLIDLTEQEIIQNDRQLQYERDMVVNLFHELEKMTEVLDHEERVISNLSKVLEMVEECERRMQPDCSNPLTLDECARIFETLQDKYYEEYRMSDRVDLAVAIVYPLMKEYFKEWDPLKDCTYGTEIISKWKSLLENDQLLSHGGQDLSADAFHRLIWEVWMPFVRNIVTQWQPRNCDPMVDFLDSWVHIIPVWILDNILDQLIFPKLQKEVENWNPLTDTVPIHSWIHPWLPLMQARLEPLYSPIRSKLSSALQKWHPSDSSAKLILQPWKDVFTPGSWEAFMVKNIVPKLGMCLGELVINPHQQHMDAFYWVIDWEGMISVSSLVGLLEKHFFPKWLQVLCSWLSNSPNYEEITKWYLGWKSMFSDQVLAHPSVKDKFNEALDIMNRAVSSNVGAYMQPGARENIAYLTHTERRKDFQYEAMQERREAENMAQRGIGVAASSVPMNFKDLIETKAEEHNIVFMPVIGKRHEGKQLYTFGRIVIYIDRGVVFVQGEKTWVPTSLQSLIDMAK
partner: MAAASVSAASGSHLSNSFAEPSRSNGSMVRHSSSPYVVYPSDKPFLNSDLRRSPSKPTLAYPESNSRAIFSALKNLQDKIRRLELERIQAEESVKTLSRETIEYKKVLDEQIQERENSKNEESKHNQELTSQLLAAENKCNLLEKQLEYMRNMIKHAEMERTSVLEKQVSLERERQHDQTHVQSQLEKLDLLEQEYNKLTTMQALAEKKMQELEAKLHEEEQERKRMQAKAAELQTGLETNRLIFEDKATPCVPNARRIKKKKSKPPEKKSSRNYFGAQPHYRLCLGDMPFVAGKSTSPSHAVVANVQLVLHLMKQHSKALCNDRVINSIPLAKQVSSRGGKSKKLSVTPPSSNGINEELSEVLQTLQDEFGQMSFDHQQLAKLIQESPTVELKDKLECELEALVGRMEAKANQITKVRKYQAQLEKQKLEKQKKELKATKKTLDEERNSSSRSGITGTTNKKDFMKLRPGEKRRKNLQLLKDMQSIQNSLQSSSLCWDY

Variants of: B1
Details: with otx1_human OTX1, P32242
Chain of otx1_human OTX1, P32242 (P32242 whole entry): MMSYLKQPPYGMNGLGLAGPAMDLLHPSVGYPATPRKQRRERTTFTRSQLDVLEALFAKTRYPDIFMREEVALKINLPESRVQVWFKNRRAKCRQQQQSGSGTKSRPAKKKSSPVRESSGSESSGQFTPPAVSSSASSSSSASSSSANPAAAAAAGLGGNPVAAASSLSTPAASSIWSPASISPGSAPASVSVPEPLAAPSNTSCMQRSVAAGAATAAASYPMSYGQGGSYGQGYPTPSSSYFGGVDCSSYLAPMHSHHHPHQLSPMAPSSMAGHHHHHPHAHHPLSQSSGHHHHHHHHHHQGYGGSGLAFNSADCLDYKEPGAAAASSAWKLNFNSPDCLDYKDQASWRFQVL

Variant | effect of a mutation on the interaction
H347Y | with no effect

Variants of: B1
Details: with co8a1_human COL8A1, P27658
Chain of co8a1_human COL8A1, P27658 (P27658 whole entry): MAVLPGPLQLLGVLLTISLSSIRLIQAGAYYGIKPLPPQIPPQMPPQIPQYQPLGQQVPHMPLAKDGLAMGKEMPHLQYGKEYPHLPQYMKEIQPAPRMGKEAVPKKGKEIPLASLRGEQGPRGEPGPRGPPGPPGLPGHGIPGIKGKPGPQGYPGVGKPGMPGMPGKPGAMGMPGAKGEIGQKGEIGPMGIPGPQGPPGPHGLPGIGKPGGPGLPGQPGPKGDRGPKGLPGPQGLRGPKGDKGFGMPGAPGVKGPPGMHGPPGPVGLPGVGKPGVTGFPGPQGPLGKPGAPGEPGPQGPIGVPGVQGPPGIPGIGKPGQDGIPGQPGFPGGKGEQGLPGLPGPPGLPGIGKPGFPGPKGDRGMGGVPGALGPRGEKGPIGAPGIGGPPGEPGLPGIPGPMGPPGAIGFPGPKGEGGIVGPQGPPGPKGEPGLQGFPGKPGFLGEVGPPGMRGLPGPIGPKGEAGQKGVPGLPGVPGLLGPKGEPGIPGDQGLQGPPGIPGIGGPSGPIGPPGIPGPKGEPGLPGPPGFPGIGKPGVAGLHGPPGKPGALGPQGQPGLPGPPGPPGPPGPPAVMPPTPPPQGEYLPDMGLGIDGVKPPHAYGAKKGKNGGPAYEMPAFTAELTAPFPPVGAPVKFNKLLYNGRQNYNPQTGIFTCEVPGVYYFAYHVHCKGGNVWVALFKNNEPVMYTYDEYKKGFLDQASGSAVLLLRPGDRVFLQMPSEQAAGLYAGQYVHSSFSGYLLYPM

Variant | effect of a mutation on the interaction
H347Y | with no effect

Variants of: B1
Details: with hxa1_human HOXA1, P49639
Chain of hxa1_human HOXA1, P49639 (P49639 whole entry): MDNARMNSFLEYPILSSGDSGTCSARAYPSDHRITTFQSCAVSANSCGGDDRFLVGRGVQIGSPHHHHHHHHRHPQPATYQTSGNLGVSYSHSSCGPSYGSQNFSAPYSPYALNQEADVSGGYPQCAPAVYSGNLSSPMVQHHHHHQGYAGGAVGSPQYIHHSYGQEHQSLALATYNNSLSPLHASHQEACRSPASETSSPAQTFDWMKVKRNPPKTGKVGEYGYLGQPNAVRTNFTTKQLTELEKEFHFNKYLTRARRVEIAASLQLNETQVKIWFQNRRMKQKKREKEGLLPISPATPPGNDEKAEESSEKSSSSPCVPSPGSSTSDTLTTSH

Variant | effect of a mutation on the interaction
H347Y | with no effect

Variants of: B2
Details: with ifit3_human IFIT3, O14879

Variant | effect of a mutation on the interaction
E79A | disrupting interaction strength

Variants of: B3
Details: with maga6_human MAGEA6, P43360
Chain of maga6_human MAGEA6, P43360 (P43360 whole entry): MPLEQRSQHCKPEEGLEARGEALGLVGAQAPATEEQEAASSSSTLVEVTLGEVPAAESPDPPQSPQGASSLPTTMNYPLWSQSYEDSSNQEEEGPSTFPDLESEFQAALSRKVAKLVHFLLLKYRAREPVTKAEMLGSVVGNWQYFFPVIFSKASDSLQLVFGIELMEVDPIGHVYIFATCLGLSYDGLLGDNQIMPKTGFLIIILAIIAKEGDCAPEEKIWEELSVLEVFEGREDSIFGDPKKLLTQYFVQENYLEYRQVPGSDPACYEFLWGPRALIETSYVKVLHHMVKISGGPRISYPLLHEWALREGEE

Variant | effect of a mutation on the interaction
G267S | disrupting interaction strength
A296E | with no effect

Variants of: B3
Details: with anr54_human ANKRD54, Q6NXT1
Chain of anr54_human ANKRD54, Q6NXT1 (Q6NXT1 whole entry): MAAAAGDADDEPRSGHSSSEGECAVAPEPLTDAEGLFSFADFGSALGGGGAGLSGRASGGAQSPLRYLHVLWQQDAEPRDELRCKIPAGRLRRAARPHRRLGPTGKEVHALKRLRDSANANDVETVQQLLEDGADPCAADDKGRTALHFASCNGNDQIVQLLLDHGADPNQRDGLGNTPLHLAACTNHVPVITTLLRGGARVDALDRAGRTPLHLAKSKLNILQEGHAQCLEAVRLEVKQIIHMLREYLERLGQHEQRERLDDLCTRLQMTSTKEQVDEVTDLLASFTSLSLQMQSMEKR

Variant | effect of a mutation on the interaction
G267S | with no effect

Variants of: B4
Details: with goga2_human GOLGA2, Q08379

Variant | effect of a mutation on the interaction
T224I | with no effect

Variants of: B5
Details: with wasc3_human WASHC3, Q9Y3C0

Variant | effect of a mutation on the interaction
I527T | with no effect

Variants of: B6
Details: with dpoe2_human POLE2, P56282

Variant | effect of a mutation on the interaction
N355S | with no effect

Variants of: B7
Details: with cep57_human CEP57, Q86XR8

Variant | effect of a mutation on the interaction
S688L | with no effect
R8Q | with no effect
